According to US20220363757A1 (SYMPHOGEN A S, published 2022):
Numbering of substitutions follows the chain as printed. Blank lines part the entries; values can stand above or below the binder they belong to.

Experiments:
Test in all cases: SPR, Fab over captured mutant LAG-3-Fc;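 note: fc fusion variants captured on anti-human IgG Fc sensor, Fab injected with association then dissociation phases, KD obtained from Langmuir one-to-one fit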
[1] = target: T1, human LAG-3 domain 1-2 Fc fusion, point mutation #25 H78A (human, UniProt P18627 23-266)
T1 construct: not shown: human IgG1 Fc, AA P101-K330
T1 sequence: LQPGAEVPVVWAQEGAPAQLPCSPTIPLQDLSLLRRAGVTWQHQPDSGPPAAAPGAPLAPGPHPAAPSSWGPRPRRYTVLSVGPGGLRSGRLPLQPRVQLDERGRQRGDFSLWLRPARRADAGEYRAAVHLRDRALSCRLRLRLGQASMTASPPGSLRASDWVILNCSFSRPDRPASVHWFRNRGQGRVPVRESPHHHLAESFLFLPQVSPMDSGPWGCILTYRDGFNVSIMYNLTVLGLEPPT

[2] = target: T2, human LAG-3 domain 1-2 Fc fusion, point mutation #5 P46A (human, UniProt P18627 23-266)
T2 construct: not shown: human IgG1 Fc, AA P101-K330
T2 sequence: T1 sequence with P24A, A56H

[3] = target: T3, human LAG-3 domain 1-2 Fc fusion, point mutation #15 Q64A (human, UniProt P18627 23-266)
T3 construct: not shown: human IgG1 Fc, AA P101-K330
T3 sequence: T1 sequence with Q42A, A56H

[4] = target: T4, human LAG-3 domain 1-2 Fc fusion, point mutation #77 R148A (human, UniProt P18627 23-266)
T4 construct: not shown: human IgG1 Fc, AA P101-K330
T4 sequence: T1 sequence with A56H, R126A

[5] = target: T5, human LAG-3 domain 1-2 Fc fusion, point mutation #69 R129A (human, UniProt P18627 23-266)
T5 construct: not shown: human IgG1 Fc, AA P101-K330
T5 sequence: T1 sequence with A56H, R107A

[6] = target: T6, human LAG-3 domain 1-2 Fc fusion, point mutation #51 G107A (human, UniProt P18627 23-266)
T6 construct: not shown: human IgG1 Fc, AA P101-K330
T6 sequence: T1 sequence with A56H, G85A

[7] = target: T7, human LAG-3 domain 1-2 Fc fusion, point mutation #66 G126A (human, UniProt P18627 23-266)
T7 construct: not shown: human IgG1 Fc, AA P101-K330
T7 sequence: T1 sequence with A56H, G104A

[8] = target: T8, human LAG-3 domain 1-2 Fc fusion, point mutation #38 S91A (human, UniProt P18627 23-266)
T8 construct: not shown: human IgG1 Fc, AA P101-K330
T8 sequence: T1 sequence with A56H, S69A

[9] = target: T9, human LAG-3 domain 1-2 Fc fusion, point mutation #62 Q121A (human, UniProt P18627 23-266)
T9 construct: not shown: human IgG1 Fc, AA P101-K330
T9 sequence: T1 sequence with A56H, Q99A

KD mutant/KD wild type [1]: 0.5 fold
binding result [2]: no binding (tested: 300 nM)
binding result [3]: no binding (tested: 300 nM)
binding result [4]: no binding (tested: 300 nM)
binding result [5]: no binding (tested: 300 nM)
binding result [6]: no binding (tested: 300 nM)
KD mutant/KD wild type [7]: 0.9 fold
KD mutant/KD wild type [8]: 0.7 fold
KD mutant/KD wild type [9]: 0.6 fold
B1: Fab fragment of antibody 15572 (Fab, V domains shown, not shown: a dimerising Fc or GST)
VH: QLQLQESGPGLVKPSETLSLTCTVSGDSISSSSYYWGWIRQPPGKGLEWIGSIFYSGNTYYNPSLKSRVTISVDTSKNQFSLKLSSVTAADTAVYYCAREDDFLTDYYGAFDIWGQGTMVTVSS
VL: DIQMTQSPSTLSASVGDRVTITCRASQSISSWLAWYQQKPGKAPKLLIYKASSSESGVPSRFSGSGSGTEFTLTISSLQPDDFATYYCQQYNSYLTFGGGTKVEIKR
notes: monomeric Fab made by GingisKHAN digestion of the IgG1

KD mutant/KD wild type [1]: 0.9 fold
KD mutant/KD wild type [2]: 4 fold
KD mutant/KD wild type [3]: 2.9 fold
KD mutant/KD wild type [4]: 2.9 fold
KD mutant/KD wild type [5]: 3 fold
KD mutant/KD wild type [6]: 2.1 fold
KD mutant/KD wild type [7]: 0.9 fold
KD mutant/KD wild type [8]: 5.3 fold
KD mutant/KD wild type [9]: 0.9 fold
B2: Fab fragment of antibody 15532 (Fab, V domains shown, not shown: a dimerising Fc or GST)
VH: QVQLQQWGAGLLRPSETLSLTCAVYGESFSGYYWNWIRQPPGKGLEWIGEINHSGSTNYNPSLKSRVTISVDTSKTQFSLKLSSVTAADTAVYYCARGWDLLDWNDYWNEYWGQGTLVTVSS
VL: EIVLTQSPATLSLSPGERATLSCRASQSVSSYLAWYQQKPGQAPRLLIYDASNRATGIPARFSGSGSGTDFTLTISSLEPEDFAVYYCQQRSNWPLTFGGGTKVEIKR
notes: as for B1

KD mutant/KD wild type [1]: 0.4 fold
binding result [2]: no binding (tested: 300 nM)
binding result [3]: no binding (tested: 300 nM)
binding result [4]: no binding (tested: 300 nM)
binding result [5]: no binding (tested: 300 nM)
binding result [6]: no binding (tested: 300 nM)
KD mutant/KD wild type [7]: 0.9 fold
KD mutant/KD wild type [8]: 0.7 fold
KD mutant/KD wild type [9]: 1 fold
B3: Fab fragment of antibody 15431 (Fab, V domains shown, not shown: a dimerising Fc or GST)
VH: QVQLQQSGPGLVKPSQTLSLTCAISGDSVSSNSAAWNWIRQSPSRGLEWLGRTYYRSKWYNDYAVSVKSRITINPDTSKNQFSLQLNSVTPEDTAVYYCARDDDWNDFDYWGQGTLVTVSS
VL: B2 VL
notes: as for B1

KD mutant/KD wild type [1]: 0.7 fold
KD mutant/KD wild type [2]: 0.7 fold
KD mutant/KD wild type [3]: 0.6 fold
KD mutant/KD wild type [4]: 0.7 fold
KD mutant/KD wild type [5]: 0.7 fold
KD mutant/KD wild type [6]: 5.7 fold
KD mutant/KD wild type [7]: 0.9 fold
KD mutant/KD wild type [8]: 0.8 fold
KD mutant/KD wild type [9]: 0.9 fold
B4: Fab fragment of antibody 15011 (Fab, V domains shown, not shown: a dimerising Fc or GST)
VH: EVQLLESGGGLVQPGGSLRLSCAASGFDFRSYAMMWVRQAPGKGLEWVGGINGEVGGSNTYYAPAVKGRATISRDNSKNTLYLQMNSLRAEDTAVYYCVKGAGACGICNDDIDAWGQGTLVTVSS
VL: SYELTQDPAVSVALGQTVRITCSGAGSYAGSYYYGWHQQKPGQAPVTVIYDNDKRPSNIPDRFSGSSSGNTASLTITGAQAEDEADYYCGSTNDNDDGGLFGSGTKVTVLG
notes: as for B1
